Consider 24 sequences from the Immune Epitope Database (IEDB).

The target of one test is HLA-A*31:01. Nature of the test: IEDB peptide-MHC binding, purified MHC/direct/fluorescence; filed as Kd, often an IC50 or EC50 that approximates it; ≥ and ≤ were set here for values at or beyond the usual limits of such assays. To be noted: source organism: Salmonella enterica subsp. enterica serovar Typhimurium.
Another test addresses HLA-B*27:05. The description is as above. To be noted: source organism: Salmonella enterica subsp. enterica serovar Typhimurium.
A further test deals with HLA-A*02:01. The test is described as above. To be noted: source organism: Salmonella enterica subsp. enterica serovar Typhimurium.
In test [1] the target is HLA-B*15:01. Described as above.
For another test, the target named is HLA-A*69:01. The test is described as above. The settings on record: source organism: Salmonella enterica subsp. enterica serovar Typhimurium.
The target in test [2] is HLA-B*08:01. Nature of the test: IEDB peptide-MHC binding, purified MHC/competitive/radioactivity; filed as Kd, often an IC50 or EC50 that approximates it; ≥ and ≤ were set here for values at or beyond the usual limits of such assays.
The target of a further test is HLA-B*18:01. The test is described as above. The settings on record: source organism: SARS coronavirus Tor2.
Another test deals with HLA-B*44:03. The description is as above. To be noted: source organism: SARS coronavirus Tor2.
A further test has as its target HLA-B*40:02. The description is as above. The settings on record: source organism: SARS coronavirus Tor2.
Another test addresses HLA-B*45:01. The description is as above. The settings on record: source organism: SARS coronavirus Tor2.
The target in the next test is HLA-B*44:02. The test is described as above. To be noted: source organism: SARS coronavirus Tor2.
The target of test [3] is HLA-B*40:01. Described as above. The settings on record: source organism: SARS coronavirus Tor2.
The target in test [4] is HLA-B*08:01. The test can be described thus: IEDB peptide-MHC binding, purified MHC/direct/fluorescence; filed as Kd, often an IC50 or EC50 that approximates it; ≥ and ≤ were set here for values at or beyond the usual limits of such assays.
The next test has as its target HLA-A*11:01. The test is described as above. The settings on record: source organism: SARS-CoV1.
For a further test, the target named is HLA-B*58:01. Described as above. The settings on record: source organism: SARS-CoV1.
Another test deals with HLA-B*07:02. The test is described as above. To be noted: source organism: SARS-CoV1.
Test [5] has as its target HLA-B*40:01. The description is as above. To be noted: source organism: SARS-CoV1.
The target of test [6] is HLA-B*15:01. The test can be described thus: IEDB peptide-MHC binding, purified MHC/competitive/fluorescence; filed as Kd, often an IC50 or EC50 that approximates it; ≥ and ≤ were set here for values at or beyond the usual limits of such assays. The settings on record: source organism: Bacillus anthracis str. A0488.
A further test addresses HLA-A*32:01. Nature of the test: IEDB peptide-MHC binding, purified MHC/competitive/radioactivity; filed as Kd, often an IC50 or EC50 that approximates it; ≥ and ≤ were set here for values at or beyond the usual limits of such assays. The settings on record: source organism: Dengue virus 4 Philippines/H241/1956.
In a further test the target is HLA-B*53:01. Described as above.
A further test deals with HLA-B*51:01. Described as above.
The target of a further test is HLA-B*35:01. The test is described as above.
Another test addresses HLA-A*26:01. The test can be described thus: IEDB peptide-MHC binding, purified MHC/direct/fluorescence; filed as Kd, often an IC50 or EC50 that approximates it; ≥ and ≤ were set here for values at or beyond the usual limits of such assays. The settings on record: source organism: Giardia lamblia ATCC 50803.
A further test deals with HLA-A*23:01. Nature of the test: IEDB peptide-MHC binding, purified MHC/competitive/radioactivity; filed as Kd, often an IC50 or EC50 that approximates it; ≥ and ≤ were set here for values at or beyond the usual limits of such assays. The settings on record: source organism: Dengue virus 4 Philippines/H241/1956.
Where [7] appears, read: source organism: Vaccinia virus WR.
The mark [8] stands for this setting: source organism: Dengue virus 1 Brazil/97-11/1997.
The mark [9] stands for this setting: source organism: Dengue virus 4 Philippines/H241/1956.
The mark [10] stands for this setting: source organism: Dengue virus 3 Martinique/1243/1999.

A word on the Kd: it is a measure of binding affinity in units of concentration. As for GMKAFTAAV, the Kd with HLA-A*31:01 is 74.8 nM; in the test with HLA-B*27:05 it was 7260 nM; in the test with HLA-A*02:01, 281 nM; with HLA-B*15:01 [1] (source organism: Salmonella enterica subsp. enterica serovar Typhimurium), 59 nM; with HLA-A*69:01, 3560 nM. With LPMLYFLYV, in the test with HLA-B*08:01 [2] (setting [7]), the Kd stood at 2.51 nM.

Consider EEGNLLDSYF, for which the Kd is 10700 nM in the test with HLA-B*18:01; 11.7 nM with HLA-B*44:03; ≥ 70800 nM in the test with HLA-B*40:02; ≥ 20200 nM in the test with HLA-B*45:01; 3.88 nM with HLA-B*44:02; ≥ 41800 nM with HLA-B*40:01 [3]. Consider NMKFKNSVE, for which, in the test with HLA-B*08:01 [2] (setting [7]), the Kd worked out at 1340 nM.

Turning to EARKTFVEL, the Kd with HLA-B*08:01 [2] (setting [8]) was 97.1 nM. YLKWRWLHF showed a Kd in the test with HLA-B*08:01 [4] (source organism: Burkholderia mallei ATCC 23344) of 2 nM. NQATTKTTF: the Kd in the test with HLA-A*11:01 was ≥ 79900 nM; in the test with HLA-B*08:01 [4] (source organism: SARS-CoV1), 7150 nM; with HLA-B*58:01, 9270 nM; with HLA-B*15:01 [1] (source organism: SARS-CoV1), 203 nM; in the test with HLA-B*07:02, 19800 nM; in the test with HLA-B*40:01 [5], ≥ 57300 nM. INRKGKVIGL: the Kd in the test with HLA-B*08:01 [2] (setting [9]) amounted to 3660 nM.

Consider RLMATKNIY, for which the Kd with HLA-B*15:01 [6] was 136 nM.

As for EAKRKLTEL, the Kd with HLA-B*08:01 [2] (setting [7]) was determined as 2.45 nM. With FNKTIFLSE, the Kd with HLA-B*08:01 [2] (setting [7]) was 255 nM. Turning to MPLVMAWRTI, the Kd in the test with HLA-A*32:01 is 136 nM; in the test with HLA-B*53:01 (setting [9]), 10.8 nM; with HLA-B*51:01 (setting [9]), 61.9 nM; in the test with HLA-B*35:01 (setting [9]), 705 nM. MVSIQWHAM yielded a Kd in the test with HLA-A*26:01 of 3760 nM. Take TPQPMELKY: the Kd turned out to be 18.4 nM in the test with HLA-B*53:01 (setting [10]) and 10.6 nM with HLA-B*35:01 (setting [10]). Regarding DPVVYDAKF, the Kd with HLA-B*53:01 (setting [8]) was found to be 648 nM; in the test with HLA-B*35:01 (setting [8]), 959 nM. In the case of LPESLETLM, the results for the Kd with HLA-B*53:01 (setting [9]), with HLA-B*51:01 (setting [9]) and with HLA-B*35:01 (setting [9]) were 557 nM, 2450 nM and 470 nM, respectively. In the test with HLA-B*15:01 [6], QSRKEFMSM yielded a Kd of 66.6 nM. With MLLCHKPTL, the Kd in the test with HLA-B*08:01 [2] (setting [7]) was 18.7 nM. Turning to EPKISLLPL, the Kd with HLA-B*08:01 [2] (setting [7]) came to 8.53 nM. In the case of MPTYKHLIM, the Kd with HLA-B*08:01 [2] (setting [7]) was found to be 0.13 nM. Regarding MALKDFKEF, the Kd with HLA-B*53:01 (setting [9]) was determined as 139 nM; with HLA-A*23:01 it was 154 nM; with HLA-B*35:01 (setting [9]) it was 77 nM. On to EKIIHFLTI, for which the Kd with HLA-B*08:01 [2] (setting [7]) came out at 5.04 nM.

MVQADSGCVV: in the test with HLA-B*51:01 (source organism: Dengue virus 2 Jamaica/1409/1983), the Kd is ≥ 30500 nM.

In the case of SPIINREGKV, the dissociation constant (Kd) in the test with HLA-B*51:01 (setting [10]) is ≥ 69600 nM.
